Series [1] has as its system HeLa Kyoto. Description: solubility change mitosis vs G1/S (difference of NP-40 vs SDS log2 ratios) (log2 ratio difference); higher = more soluble in mitosis.
Series [2] concerns HeLa Kyoto. Description: solubility in G1/S (NP-40 vs SDS abundance) (log2 ratio); higher = more soluble. To be noted: cell cycle stage: G1/S.
The subject of series [3] is HeLa Kyoto. As to the kind of experiment: thermal stability score vs G1/S (z-score of summed log2 fold changes over temperatures); higher = more thermally stable than in G1/S.
Series [4] deals with HeLa Kyoto. As to the kind of experiment: melting temperature (median over replicates), in situ; higher = more thermally stable.
Setting [5] is: cell cycle stage: early G1 (4.5 h after nocodazole release).

The values that follow come from the supplement of paper PMC5998384.
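For melting temperature (median over replicates), in situ in this document: HeLa Kyoto cells synchronized by double thymidine or nocodazole block, proteins quantified by TMT10plex mass spectrometry, three independent biological replicates.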
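For solubility change mitosis vs G1/S (difference of NP-40 vs SDS log2 ratios) in this document: synchronized HeLa Kyoto cells (double thymidine block for G1/S, nocodazole release for mitosis), protein amounts in NP-40 versus SDS lysates quantified by mass spectrometry, three biological replicates.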
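For solubility in G1/S (NP-40 vs SDS abundance) in this document: HeLa Kyoto cells arrested at G1/S by double thymidine block, proteins quantified by TMT10plex mass spectrometry in mild NP-40 versus SDS extracts, three biological replicates.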
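For thermal stability score vs G1/S (z-score of summed log2 fold changes over temperatures) in this document: synchronized HeLa Kyoto cells, proteins quantified by TMT10plex mass spectrometry, three biological replicates, mitosis taken 0.5 h after nocodazole release, G1/S directly after double thymidine block.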

With “MDDFERRRELRRQKREEMRLEAERIAYQRNDDDEEEAARERRRRARQERLRQKQEEESLGQVTDQVEVNAQNSVPDEEAKTTTTNTQVEGDDEAAFLERLARREERRQKRLQEALERQKEFDPTITDASLSLPSRRMQNDTAENETTEKEEKSESRQERYEIEETETVTKSYQKNDWRDAEENKKEDKEKEEEEEEKPKRGSIGENQVEVMVEEKTTESQEETVVMSLKNGQISSEEPKQEEEREQGSDEISHHEKMEEEDKERAEAERARLEAEERERIKAEQDKKIADERARIEAEEKAAAQERERREAEERERMREEEKRAAEERQRIKEEEKRAAEERQRIKEEEKRAAEERQRIKEEEKRAAEERQRARAEEEEKAKVEEQKRNKQLEEKKHAMQETKIKGEKVEQKIEGKWVNEKKAQEDKLQTAVLKKQGEEKGTKVQAKREKLQEDKPTFKKEEIKDEKIKKDKEPKEEVKSFMDRKKGFTEVKSQNGEFMTHKLKHTENTFSRPGGRASVDTKEAEGAPQVEAGKRLEELRRRRGETESEEFEKLKQKQQEAALELEELKKKREERRKVLEEEEQRRKQEEADRKLREEEEKRRLKEEIERRRAEAAEKRQKMPEDGLSDDKKPFKCFTPKGSSLKIEERAEFLNKSVQKSSGVKSTHQAAIVSKIDSRLEQYTSAIEGTKSAKPTKPAASDLPVPAEGVRNIKSMWEKGNVFSSPTAAGTPNKETAGLKVGVSSRINEWLTKTPDGNKSPAPKPSDLRPGDVSSKRNLWEKQSVDKVTSPTKV [CALD1]”, in the series with HeLa Kyoto [1], the “solubility change mitosis (log2)” value came out at 0.119. Besides, the “solubility in G1/S (log2)” value with HeLa Kyoto [2] stood at 0.0624. For the same sequence, the thermal stability score in the series with HeLa Kyoto [3] (setting [5]) was 0.295; in the series with HeLa Kyoto [3] (cell cycle stage: mitosis) it was -2.2. In addition, the melting temperature in the series on HeLa Kyoto [4] (cell cycle stage: G1/S) and with HeLa Kyoto [4] (cell cycle stage: mitosis) was 57.1 °C in each case.

For “MDDSEVESTASILASVKEQEAQFEKLTRALEEERRHVSAQLERVRVSPQDANPLMANGTLTRRHQNGRFVGDADLERQKFSDLKLNGPQDHSHLLYSTIPRMQEPGQIVETYTEEDPEGAMSVVSVETSDDGTTRRTETTVKKVVKTVTTRTVQPVAMGPDGLPVDASSVSNNYIQTLGRDFRKNGNGGPGPYVGQAGTATLPRNFHYPPDGYSRHYEDGYPGGSDNYGSLSRVTRIEERYRPSMEGYRAPSRQDVYGPQPQVRVGGSSVDLHRFHPEPYGLEDDQRSMGYDDLDYGMMSDYGTARRTGTPSDPRRRLRSYEDMIGEEVPSDQYYWAPLAQHERGSLASLDSLRKGGPPPPNWRQPELPEVIAMLGFRLDAVKSNAAAYLQHLCYRNDKVKTDVRKLKGIPVLVGLLDHPKKEVHLGACGALKNISFGRDQDNKIAIKNCDGVPALVRLLRKARDMDLTEVITGTLWNLSSHDSIKMEIVDHALHALTDEVIIPHSGWEREPNEDCKPRHIEWESVLTNTAGCLRNVSSERSEARRKLRECDGLVDALIFIVQAEIGQKDSDSKLVENCVCLLRNLSYQVHREIPQAERYQEAAPNVANNTGPHAASCFGAKKGKDEWFSRGKKPIEDPANDTVDFPKRTSPARGYELLFQPEVVRIYISLLKESKTPAILEASAGAIQNLCAGRWTYGRYIRSALRQEKALSAIADLLTNEHERVVKAASGALRNLAVDARNKELIGKHAIPNLVKNLPGGQQNSSWNFSEDTVISILNTINEVIAENLEAAKKLRETQGIEKLVLINKSGNRSEKEVRAAALVLQTIWGYKELRKPLEKEGWKKSDFQVNLNNASRSQSSHSYDDSTLPLIDRNQKSDKKPDREEIQMSNMGSNTKSLDNNYSTPNERGDHNRTLDRSGDLGDMEPLKGTTPLMQDEGQESLEEELDVLVLDDEGGQVSYPSMQKI [CTNND1]”, the “solubility change mitosis (log2)” value with HeLa Kyoto [1] was -0.0563. Also, the “solubility in G1/S (log2)” value in the series on HeLa Kyoto [2] was 0.228. Also, the thermal stability score in the series on HeLa Kyoto [3] (setting [5]) was -0.443; in the series on HeLa Kyoto [3] (cell cycle stage: mitosis), 1.3. The melting temperature in the series on HeLa Kyoto [4] (cell cycle stage: G1/S) is 48.1 °C; with HeLa Kyoto [4] (cell cycle stage: mitosis), 48 °C.

For “MDEAVGDLKQALPCVAESPTVHVEVHQRGSSTAKKEDINLSVRKLLNRHNIVFGDYTWTEFDEPFLTRNVQSVSIIDTELKVKDSQPIDLSACTVALHIFQLNEDGPSSENLEEETENIIAANHWVLPAAEFHGLWDSLVYDVEVKSHLLDYVMTTLLFSDKNVNSNLITWNRVVLLHGPPGTGKTSLCKALAQKLTIRLSSRYRYGQLIEINSHSLFSKWFSESGKLVTKMFQKIQDLIDDKDALVFVLIDEVESLTAARNACRAGTEPSDAIRVVNAVLTQIDQIKRHSNVVILTTSNITEKIDVAFVDRADIKQYIGPPSAAAIFKIYLSCLEELMKCQIIYPRQQLLTLRELEMIGFIENNVSKLSLLLNDISRKSEGLSGRVLRKLPFLAHALYVQAPTVTIEGFLQALSLAVDKQFEERKKLAAYI [TRIP13]”, the “solubility change mitosis (log2)” value in the series with HeLa Kyoto [1] was -0.116. The “solubility in G1/S (log2)” value in the series with HeLa Kyoto [2] was -0.0812. Further, the thermal stability score with HeLa Kyoto [3] (setting [5]) worked out at 3.83; with HeLa Kyoto [3] (cell cycle stage: mitosis), 2.94. In addition, the melting temperature in the series on HeLa Kyoto [4] (cell cycle stage: G1/S) worked out at 50.9 °C; with HeLa Kyoto [4] (cell cycle stage: mitosis), 51.3 °C.

On to “MDFLMSGLAACGACVFTNPLEVVKTRMQLQGELQAPGTYQRHYRNVFHAFITIGKVDGLAALQKGLAPALLYQFLMNGIRLGTYGLAEAGGYLHTAEGTHSPARSAAAGAMAGVMGAYLGSPIYMVKTHLQAQAASEIAVGHQYKHQGMFQALTEIGQKHGLVGLWRGALGGLPRVIVGSSTQLCTFSSTKDLLSQWEIFPPQSWKLALVAAMMSGIAVVLAMAPFDVACTRLYNQPTDAQGKGLMYRGILDALLQTARTEGIFGMYKGIGASYFRLGPHTILSLFFWDQLRSLYYTDTK [SLC25A35]”, for which the “solubility change mitosis (log2)” value with HeLa Kyoto [1] is -0.137. The “solubility in G1/S (log2)” value in the series with HeLa Kyoto [2] was 0.0544. For the same sequence, the thermal stability score in the series on HeLa Kyoto [3] (setting [5]) is 0.653; in the series on HeLa Kyoto [3] (cell cycle stage: mitosis), -0.326. Also, the melting temperature in the series with HeLa Kyoto [4] (cell cycle stage: G1/S) turned out to be 56.2 °C; in the series with HeLa Kyoto [4] (cell cycle stage: mitosis), 54.3 °C.
